This note sets out measurements from US20160237162A1.

For test [1], the target named is human HER3 on human cancer cells (human) (UniProt P21860).
Test [2] shares this target. The source holds these as a separate data set.
The target is the same in test [3]. This is another data set of the same source.
For test [4] the target is unchanged. This is another data set of the same source.
Test [5] has the same target. This is another data set of the same source.
Test [6] has the same target. Description: cell-based or functional assay.
For test [7] the target is unchanged. This is another data set of the same source.
Test [8] shares this target. This is another data set of the same source.
The target is the same in test [9]. The source holds these as a separate data set.
The target is the same in test [10]. This is another data set of the same source.
For test [11] the target is unchanged. This is another data set of the same source.
Test [12] has the same target. This is another data set of the same source.

In test [1], “AMG anti-HER3 monoclonal antibody (U1-59)” yielded an IC50; growth suppression (CellTiter-Glo, 6 days), MDA-MB-175 cells of 0.99 µg/mL and a Maximum inhibition %; growth suppression (CellTiter-Glo, 6 days), MDA-MB-175 cells of 39%. In test [2], this substance showed an IC50; suppression of pHER3 (pHER3 ELISA), EGFR-TKI (gefitinib)-resistant HCC827 cells of 31 ng/ml and a Maximum inhibition %; suppression of pHER3 (pHER3 ELISA), EGFR-TKI (gefitinib)-resistant HCC827 cells of 24%. In addition, in [3], the IC50; suppression of pHER3 (pHER3 ELISA), MKN45 cells came to 16.1 ng/ml and the Maximum inhibition %; suppression of pHER3 (pHER3 ELISA), MKN45 cells came out at 58%. In test [4], this substance yielded an IC50; suppression of pHER3 (pHER3 ELISA), Kato III cells of 9.6 ng/ml and a Maximum inhibition %; suppression of pHER3 (pHER3 ELISA), Kato III cells of 62%. For the same substance, in [5], the IC50; suppression of HRG-induced pHER3 (pHER3 ELISA), MCF-7 cells is 33 ng/ml and the Maximum inhibition %; suppression of HRG-induced pHER3 (pHER3 ELISA), MCF-7 cells was found to be 77%. Besides, in test [6], the fold decrease in pHER3 ELISA in HCC827 cells; potency against 2C2 was found to be 10 fold and the pHER3 ELISA in Kato III cells, maximal pHER3 suppression came to 60%. In test [7], this substance had an IC50; suppression of pHER3 (pHER3 ELISA), HCC827 cells of 23 ng/ml and a Maximum inhibition %; suppression of pHER3 (pHER3 ELISA), HCC827 cells of 41%. Further, in test [8], the IC50; suppression of pAKT (Meso-Scale Discovery assay), Kato III cells stood at 6.2 ng/ml and the Maximum inhibition %; suppression of pAKT (Meso-Scale Discovery assay), Kato III cells amounted to 22%. Besides, in test [9], the IC50; suppression of pHER3 (pHER3 ELISA), BT-474 cells was greater than 10 µg/ml. In test [10], the IC50; suppression of pAKT (Meso-Scale Discovery assay), MKN45 cells turned out to be 15.8 ng/ml and the Maximum inhibition %; suppression of pAKT (Meso-Scale Discovery assay), MKN45 cells worked out at 38%. Further, the IC50; growth suppression (CellTiter-Glo, 6 days), HMCB melanoma cells in test [11] was 1.73 µg/mL. In [12], this substance yielded an IC50; suppression of pAKT (Meso-Scale Discovery assay), BT-474 cells greater than 10 µg/ml and a Max inhibition%; suppression of pAKT (Meso-Scale Discovery assay), BT-474 cells of 1%.
